Patent US20160000910A1

Tests used:
[1] = target: Aβ1-42 peptide fraction consisting primarily of monomers (LMW monomer fraction from SEC); assay: ELISA on coated fraction; antibody dilution 1:32 (starting dilution 0.5 µg/ml); mean of 3 assays
[2] = target: Aβ1-42 peptide fraction enriched in oligomers (high molecular weight fraction from SEC); assay: as above
[3] = target: Aβ1-42 peptide fraction enriched in oligomers (high molecular weight fraction from SEC); assay: ELISA on coated fraction; antibody dilution 1:8 (starting dilution 0.5 µg/ml); assay 3
[4] = target: Aβ1-42 peptide fraction consisting primarily of monomers (LMW monomer fraction from SEC); assay: ELISA on coated fraction; antibody dilution 1:32 (starting dilution 0.5 µg/ml); assay 2
[5] = target: Aβ1-42 peptide fraction enriched in oligomers (high molecular weight fraction from SEC); assay: as above
[6] = target: Aβ1-42 peptide fraction consisting primarily of monomers (LMW monomer fraction from SEC); assay: ELISA on coated fraction; antibody dilution 1:32 (starting dilution 0.5 µg/ml); assay 3
[7] = target: Aβ1-42 peptide fraction enriched in oligomers (high molecular weight fraction from SEC); assay: as above
[8] = target: Aβ1-42 peptide fraction consisting primarily of monomers (LMW monomer fraction from SEC); assay: ELISA on coated fraction; antibody dilution 1:128 (starting dilution 0.5 µg/ml); mean of 3 assays
[9] = target: Aβ1-42 peptide fraction enriched in oligomers (high molecular weight fraction from SEC); assay: as above
[10] = target: Aβ1-42 peptide fraction consisting primarily of monomers (LMW monomer fraction from SEC); assay: ELISA on coated fraction; antibody dilution 1:4 (starting dilution 0.5 µg/ml); mean of 3 assays
[11] = target: Aβ1-42 peptide fraction enriched in oligomers (high molecular weight fraction from SEC); assay: as above
[12] = target: Aβ1-42 peptide fraction consisting primarily of monomers (LMW monomer fraction from SEC); assay: ELISA on coated fraction; antibody dilution 1:16 (starting dilution 0.5 µg/ml); mean of 3 assays
[13] = target: Aβ1-42 peptide fraction enriched in oligomers (high molecular weight fraction from SEC); assay: as above
[14] = target: Aβ1-42 peptide fraction consisting primarily of monomers (LMW monomer fraction from SEC); assay: ELISA on coated fraction; antibody dilution 1:1 (starting dilution 0.5 µg/ml); assay 1
[15] = target: Aβ1-42 peptide fraction enriched in oligomers (high molecular weight fraction from SEC); assay: as above
[16] = target: Aβ1-42 peptide fraction consisting primarily of monomers (LMW monomer fraction from SEC); assay: ELISA on coated fraction; antibody dilution 1:1 (starting dilution 0.5 µg/ml); assay 3
[17] = target: Aβ1-42 peptide fraction enriched in oligomers (high molecular weight fraction from SEC); assay: as above
[18] = target: Aβ1-42 peptide fraction enriched in oligomers (high molecular weight fraction from SEC); assay: ELISA on coated fraction; antibody dilution 1:4 (starting dilution 0.5 µg/ml); assay 1
[19] = target: Aβ1-42 peptide fraction consisting primarily of monomers (LMW monomer fraction from SEC); assay: ELISA on coated fraction; antibody dilution 1:16 (starting dilution 0.5 µg/ml); assay 2
[20] = target: Aβ1-42 peptide fraction enriched in oligomers (high molecular weight fraction from SEC); assay: as above
[21] = target: Aβ1-42 peptide fraction consisting primarily of monomers (LMW monomer fraction from SEC); assay: ELISA on coated fraction; antibody dilution 1:1 (starting dilution 0.5 µg/ml); mean of 3 assays
[22] = target: Aβ1-42 peptide fraction enriched in oligomers (high molecular weight fraction from SEC); assay: as above
[23] = target: Aβ1-42 peptide fraction consisting primarily of monomers (LMW monomer fraction from SEC); assay: ELISA on coated fraction; antibody dilution 1:2 (starting dilution 0.5 µg/ml); assay 3
[24] = target: Aβ1-42 peptide fraction enriched in oligomers (high molecular weight fraction from SEC); assay: as above
[25] = target: Aβ1-42 peptide fraction consisting primarily of monomers (LMW monomer fraction from SEC); assay: ELISA on coated fraction; antibody dilution 1:4 (starting dilution 0.5 µg/ml); assay 2
[26] = target: Aβ1-42 peptide fraction enriched in oligomers (high molecular weight fraction from SEC); assay: as above
[27] = target: Aβ1-42 peptide fraction consisting primarily of monomers (LMW monomer fraction from SEC); assay: ELISA on coated fraction; antibody dilution 1:32 (starting dilution 0.5 µg/ml); assay 1
[28] = target: Aβ1-42 peptide fraction enriched in oligomers (high molecular weight fraction from SEC); assay: as above
[29] = target: Aβ1-42 peptide fraction consisting primarily of monomers (LMW monomer fraction from SEC); assay: ELISA on coated fraction; antibody dilution 1:128 (starting dilution 0.5 µg/ml); assay 1
[30] = target: Aβ1-42 peptide fraction enriched in oligomers (high molecular weight fraction from SEC); assay: as above
[31] = target: Aβ1-42 peptide fraction consisting primarily of monomers (LMW monomer fraction from SEC); assay: ELISA on coated fraction; antibody dilution 1:128 (starting dilution 0.5 µg/ml); assay 3
[32] = target: Aβ1-42 peptide fraction enriched in oligomers (high molecular weight fraction from SEC); assay: as above

control antibody 6E10
O.D. (mean) (O.D. at 405 nm) [1]: 1.36
O.D. (mean) (O.D. at 405 nm) [2]: 1.32
O.D. (O.D. at 405 nm) [3]: 3.23
O.D. (O.D. at 405 nm) [4]: 1.34
O.D. (O.D. at 405 nm) [5]: 1.3
O.D. (O.D. at 405 nm) [6]: 1.54
O.D. (O.D. at 405 nm) [7]: 1.4
O.D. (mean) (O.D. at 405 nm) [8]: 0.75
O.D. (mean) (O.D. at 405 nm) [9]: 0.63
O.D. (mean) (O.D. at 405 nm) [10]: 3.27
O.D. (mean) (O.D. at 405 nm) [11]: 3.37
O.D. (mean) (O.D. at 405 nm) [12]: 1.98
O.D. (mean) (O.D. at 405 nm) [13]: 1.92
O.D. (O.D. at 405 nm) [14]: 3.67
O.D. (O.D. at 405 nm) [15]: 3.36
O.D. (O.D. at 405 nm) [16]: 4.04
O.D. (O.D. at 405 nm) [17]: 3.89
O.D. (O.D. at 405 nm) [18]: 3.1
O.D. (O.D. at 405 nm) [19]: 1.94
O.D. (O.D. at 405 nm) [20]: 1.92
O.D. (mean) (O.D. at 405 nm) [21]: 3.83
O.D. (mean) (O.D. at 405 nm) [22]: 3.64
O.D. (O.D. at 405 nm) [23]: 4
O.D. (O.D. at 405 nm) [24]: 3.83
O.D. (O.D. at 405 nm) [25]: 3.29
O.D. (O.D. at 405 nm) [26]: 3.37
O.D. (O.D. at 405 nm) [27]: 1.18
O.D. (O.D. at 405 nm) [28]: 1.27
O.D. (O.D. at 405 nm) [29]: 0.64
O.D. (O.D. at 405 nm) [30]: 0.62
O.D. (O.D. at 405 nm) [31]: 0.86
O.D. (O.D. at 405 nm) [32]: 0.66
